This note sets out measurements from patent US20240084003A1 (SIMCERE ZAIMING PHARMACEUTICAL, published 2024).

The labels stand for the following.
B1: F2.99.1 (antibody, human IgG1, lambda, V domains shown)
VH: QVTLKESGPGILQPSQTLSLTCSFSGFSLSTFPMGVGWIRQPSGKGLEWLAHIWWDDDEYYNPVLKSRLTISKDTSKKQVYLRIANVDTVDTATYYCTRANWDRWYFDVWGTGTTVTVSS
VL: QLVLTQSSSASFSLGASAKLTCTLSRQHSAYTIEWYQQQPLKPPKYVMEVKKDGSHSTGDGIPDRFSGSSSGADRYLSISNIQPEDEAIYICGVGDTIKEHFVFGGGTKVTVLG
notes: Human-murine chimeric IgG1, lambda
B2: F2.42.9 (antibody, human IgG1, lambda, V domains shown)
VH: QVTLKESGPGILQPSQTLSLTCSFSGFSLSTFDRGVGWIRQPSGKGLEWLAHIWWNDKKFYNPVLKSRLTISKDTSKNQVFLTIANVDSADTATYSCARIVWDKYYFDYWGQGIPLTVSS
VL: B1 VL with R26S, Y46F, E49D, V50L, D64A, S78T, H101Q, F102Y
notes: as for B1
B3: F2.127.11 (antibody, human IgG1, lambda, V domains shown)
VH: QVTLKESGPGILQPSQTLSLTCSFSGFSLSTFGMGVGWIRQPSGKGLEWLAHIWWDDDKHYNPALKSRLTISKDTSRNQVFLKIANVDTADGATYFCARDNWVSSLDYWGQGTSVIVSS
VL: QPVITQSSSASFSLGASAELTCTLSSQHSTYTIEWYQQQPLKPPKYVMGLKKDGSHSTGDGIPDRFSGSSSGADRYLSISNIQPEDEAIYICGVSDTIKEQFVYVFGGGTKVTVLG
notes: as for B1
B4: F1.267.9 (antibody, human IgG1, kappa, V domains shown)
VH: EVQLQQSGPVLVKPGASVKMSCKASGYTFTDFYMNWAKQSHGKSLEWVGVINPYNGGINYNQKFKGKATLTVDKSSSTAYMEFNSLTSEDSAVYYCARRMEYHAMDYWGQGTSVTVSS
VL: DIVLTQSPASLAVSLGQRATISCRASESVDNYGFDFIHWYQQKPGQPPKLLIYRASNLESGIPARFSGSGSRPDFTLTINPVETDDVATYYCQQSIKDPWTFGGGTKLEIKR
notes: Human-murine chimeric IgG1, kappa
B5: F1.7.6 (antibody, human IgG1, kappa, V domains shown)
VH: EIQLQQSGPELVKPGTSVKVSCKASGYDFTRYNMYWVKQSHGKSLEWIGYIDPYNGDTRYNQKFKGKATLTVDKSSSTAYMHLNSLTSEDSAVYYCEAIYYDMEGYALDYWGQGTSVTVSS
VL: DIVMSQSPSSLAVSVGEKVTMSCKSSQSLLYSNNQKNYLAWYQQKPGQSPKKLIYWASTRESGVPDRLTGSGSGTDFTLTISSVTAEDLAVYYCQQFYSYPWTFGGGTKLEIKR
notes: as for B4

Substitutions are numbered along the chain they refer to.

One assay deals with T1, human CD22-ECD-His protein (human, UniProt P20273 20-687).
T1 construct: Made in house in HEK293E; also called hCD22-ECD-His; recombinant human CD22-ECD His protein; not shown: His tag
T1 sequence: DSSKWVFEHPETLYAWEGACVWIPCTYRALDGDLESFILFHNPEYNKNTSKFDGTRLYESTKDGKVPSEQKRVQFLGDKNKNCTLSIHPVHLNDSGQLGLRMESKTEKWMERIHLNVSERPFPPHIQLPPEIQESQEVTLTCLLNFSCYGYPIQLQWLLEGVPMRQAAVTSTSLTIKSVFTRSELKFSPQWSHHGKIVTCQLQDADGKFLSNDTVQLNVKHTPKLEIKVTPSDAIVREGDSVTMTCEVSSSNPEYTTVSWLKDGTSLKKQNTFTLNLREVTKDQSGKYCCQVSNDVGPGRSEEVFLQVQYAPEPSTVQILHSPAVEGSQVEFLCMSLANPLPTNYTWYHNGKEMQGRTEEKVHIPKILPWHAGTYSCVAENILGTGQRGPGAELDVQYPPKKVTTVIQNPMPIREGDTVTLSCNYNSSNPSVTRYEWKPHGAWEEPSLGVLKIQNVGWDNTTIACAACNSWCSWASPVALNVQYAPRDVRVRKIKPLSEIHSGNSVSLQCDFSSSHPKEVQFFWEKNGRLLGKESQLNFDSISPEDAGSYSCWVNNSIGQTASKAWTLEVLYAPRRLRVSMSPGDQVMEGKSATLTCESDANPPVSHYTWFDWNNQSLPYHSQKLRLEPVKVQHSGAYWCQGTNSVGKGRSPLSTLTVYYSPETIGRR
Put plainly: ELISA, Ab 0.01 nM. On the procedure: (§1) In order to detect the binding activity of CD22 human-murine chimeric antibodies to CD22 protein, the purified human CD22-ECD-His protein obtained in Example 2 was diluted with PBS to a final concentration of 2 μg/mL, and then added to 96-well ELISA plate at 100 μl/well. The plate was sealed with plastic film and incubated overnight at 4° C., the plate was washed 2 times with PBS the next day, and then a blocking solution [PBS+2% (w/w) BSA] was added for blocking at room temperature for 2 hours. […] After incubation at 37° C. for 2 hours, the plate was washed 3 times with PBS. HRP (horseradish peroxidase)-labeled secondary antibody (purchased from Sigma, catalog number: A0170) was added, and incubated at 37° C. for 2 hours, and the plate was washed 5 times with PBS. TMB substrate was added at 50 μl/well, and incubated at room temperature for 30 minutes, then a stop solution (1.0 N HCl) was added at 50 μl/well.
Background: In an ELISA, binding on a coated surface is turned into a signal by an enzyme label.
In turn, B1 had an OD450 of 1.45 OD450.
Molecule B2 came in with an OD450 of 1.95 OD450.
The molecule B3 registered an OD450 of 1.34 OD450.
B4 gave an OD450 of 1.47 OD450.
Consider B5, for which the OD450 amounted to 2.2 OD450.

A further assay concerns the target T1, human CD22-ECD-His protein. Put plainly: ELISA, Ab 0.10 nM. On the procedure: as §1
In turn, B1 yielded an OD450 of 2.1 OD450.
B2 yielded an OD450 of 2.58 OD450.
Regarding B3, the OD450 came out at 1.91 OD450.
Take B4: the OD450 amounted to 2.39 OD450.
In turn, B5 gave an OD450 of 2.51 OD450.

The target of a further assay is T1, human CD22-ECD-His protein. The assay is described as follows: ELISA, Ab 0.0001 nM. The procedure: as §1
In the case of B1, the OD450 is 0.27 OD450.
With B2, the OD450 stood at 0.19 OD450.
B3 gave an OD450 of 0.26 OD450.
With B4, the OD450 turned out to be 0.1 OD450.
B5: the OD450 came to 0.34 OD450.

Another assay concerns the target T2, human CD22 domain5-7-His (human, UniProt P20273 414-687).
T2 construct: also called hCD22 domain5-7-His; not shown: His tag
T2 sequence: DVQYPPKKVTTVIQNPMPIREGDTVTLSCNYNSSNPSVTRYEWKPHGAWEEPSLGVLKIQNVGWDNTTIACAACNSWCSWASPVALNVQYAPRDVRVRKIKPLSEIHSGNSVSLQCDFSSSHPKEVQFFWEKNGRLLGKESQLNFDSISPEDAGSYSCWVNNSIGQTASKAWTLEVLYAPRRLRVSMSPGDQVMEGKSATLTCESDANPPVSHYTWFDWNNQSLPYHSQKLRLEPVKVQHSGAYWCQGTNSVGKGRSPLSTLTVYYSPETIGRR
The assay is described as follows: ELISA, human CD22 domain5-7-His coated.
As for B1, the binding result is “no binding (tested: 100 nM)”.
The same measure, in the same setting: the result for B2 reads “no binding (tested: 100 nM)”.
As for B3, the binding result is reported as “no binding (tested: 100 nM)”.
Consider B4, for which the binding result is “no binding (tested: 100 nM)”.
Regarding B5, the binding result is given as “no binding (tested: 100 nM)”.

A further assay concerns the target T3, murine CD22 protein (ACROBiosystems, SI2-M52Ha) (murine, UniProt P35329 22-708).
T3 construct: extracellular domain; also called murine CD22-ECD; murine CD22-ECD-His
T3 sequence (looked up): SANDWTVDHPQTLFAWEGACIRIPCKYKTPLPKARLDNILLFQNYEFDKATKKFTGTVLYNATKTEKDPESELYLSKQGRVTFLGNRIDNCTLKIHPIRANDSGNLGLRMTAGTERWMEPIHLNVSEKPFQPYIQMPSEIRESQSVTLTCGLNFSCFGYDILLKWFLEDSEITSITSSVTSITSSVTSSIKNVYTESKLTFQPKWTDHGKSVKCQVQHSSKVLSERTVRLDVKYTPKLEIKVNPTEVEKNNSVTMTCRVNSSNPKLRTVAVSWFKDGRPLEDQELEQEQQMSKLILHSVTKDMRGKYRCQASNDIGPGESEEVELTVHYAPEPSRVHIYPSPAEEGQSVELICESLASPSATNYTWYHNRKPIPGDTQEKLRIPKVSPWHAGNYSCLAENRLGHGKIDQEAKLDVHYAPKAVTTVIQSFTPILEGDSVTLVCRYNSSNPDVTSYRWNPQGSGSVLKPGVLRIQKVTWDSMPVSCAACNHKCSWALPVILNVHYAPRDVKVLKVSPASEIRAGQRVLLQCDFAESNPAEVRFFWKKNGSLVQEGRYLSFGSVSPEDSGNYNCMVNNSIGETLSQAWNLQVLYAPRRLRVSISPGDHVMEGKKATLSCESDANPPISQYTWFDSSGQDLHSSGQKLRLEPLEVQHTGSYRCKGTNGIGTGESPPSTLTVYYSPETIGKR
The assay is described as follows: ELISA, murine CD22-ECD-His coated. On the procedure: as §1
In order to detect the species cross-binding activity of the chimeric antibodies, an ELISA plate was coated with commercial murine CD22 protein (ACROBiosystems, catalog number: SI2-M52Ha) and monkey CD22 protein (ACROBiosystems, catalog number: SI2-R52Ha), respectively, and the ELISA detection was performed according to the method in Example 5.1.
With B1, the binding result is “no binding (tested: 100 nM)”.
In the case of B2, the binding result is “no binding (tested: 100 nM)”.
Regarding B3, the binding result is reported as “no binding (tested: 100 nM)”.
For B4, the binding result is on record as “no binding (tested: 100 nM)”.
Take B5: the binding result is given as “no binding (tested: 100 nM)”.

In the next assay the target is T1, human CD22-ECD-His protein. The assay is described as follows: ELISA, Ab 100.00 nM. On the procedure: as §1
As to B1, the OD450 worked out at 2.1 OD450.
On the same count and under the same terms, the result for B2 reads 3.14 OD450; that for B3, 1.92 OD450; that for B4, 2.56 OD450.
B5 yielded an OD450 of 2.88 OD450.

The next assay addresses T1, human CD22-ECD-His protein. Put plainly: ELISA, Ab 10.00 nM. On the procedure:
as §1
Take B1: the OD450 stood at 2.06 OD450.
B2 returned an OD450 of 2.68 OD450.
B3 registered an OD450 of 1.98 OD450.
With B4, the OD450 was 2.55 OD450.
The molecule B5 yielded an OD450 of 2.46 OD450.

For a further assay, the target named is T1, human CD22-ECD-His protein. Put plainly: ELISA, Ab 0.00001 nM. On the procedure: as §1
For the molecule B1, the OD450 was 0.08 OD450.
Regarding B2, the OD450 was found to be 0.09 OD450.
B3 showed an OD450 of 0.21 OD450.
As to B4, the OD450 is 0.06 OD450.
B5: the OD450 was determined as 0.15 OD450.

The target in another assay is T1, human CD22-ECD-His protein. The assay is described as follows: ELISA, Ab 0.001 nM. The procedure:
as §1
B1 displayed an OD450 of 0.51 OD450.
With B2, the OD450 was determined as 0.68 OD450.
For the molecule B3, the OD450 was determined as 0.5 OD450.
The molecule B4 yielded an OD450 of 0.34 OD450.
The molecule B5 came in with an OD450 of 1.19 OD450.

The target of another assay is T4, human CD22 domain1-4-His (human, UniProt P20273 20-425).
T4 construct: also called hCD22 domain1-4-His; not shown: His tag
T4 sequence: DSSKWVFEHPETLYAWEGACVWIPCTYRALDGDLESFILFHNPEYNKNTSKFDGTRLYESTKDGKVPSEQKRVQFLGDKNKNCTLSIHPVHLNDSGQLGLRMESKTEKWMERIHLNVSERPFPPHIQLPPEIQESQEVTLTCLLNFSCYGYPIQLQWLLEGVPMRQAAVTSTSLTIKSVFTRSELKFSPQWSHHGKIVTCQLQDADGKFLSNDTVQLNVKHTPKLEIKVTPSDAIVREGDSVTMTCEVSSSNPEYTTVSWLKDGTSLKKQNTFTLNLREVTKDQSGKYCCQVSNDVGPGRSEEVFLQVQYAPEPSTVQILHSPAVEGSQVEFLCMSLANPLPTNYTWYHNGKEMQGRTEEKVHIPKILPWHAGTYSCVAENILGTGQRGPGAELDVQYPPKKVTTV
The assay is described as follows: ELISA, human CD22 domain1-4-His coated.
Usually EC50 (read off the curve) stands for the concentration that produces a half-maximal response. On to B1, for which the half-maximal effective concentration (EC50 (read off the curve)) was roughly 0.05 nM.
Regarding B2, the “EC50 (read off the curve)” value is roughly 0.04 nM.
The same measure, in the same setting: the result for B3 reads roughly 0.1 nM.
Take B4: the “EC50 (read off the curve)” value is roughly 0.2 nM.
Take B5: the concentration for a half-maximal effect (EC50 (read off the curve)) was roughly 0.03 nM.

In another assay the target is T1, human CD22-ECD-His protein. The assay is described as follows: ELISA, human CD22-ECD-His coated. On the procedure: as §1
As to B1, the “EC50 (read off the curve)” value was roughly 0.04 nM.
As for B2, the concentration giving a half-maximal response (EC50 (read off the curve)) was roughly 0.04 nM.
As for B3, the “EC50 (read off the curve)” value is roughly 0.05 nM.
Turning to B4, the “EC50 (read off the curve)” value is roughly 0.08 nM.
On the same count and under the same terms, as for B5, the figure is roughly 0.02 nM.
